# Assay results from patent publication US20220177587A1, “METHODS AND USES OF VARIANT CD80 FUSION PROTEINS AND RELATED CONSTRUCTS” (Alpine Immune Sciences, Inc., priority 2018, published 2022).
# Residue numbers refer to the chain shown, from its start. Numbers in names are those of the source.
# B1: E35D/M47I/Y87Q/K89E (protein, UniProt P33681 35-288, looked up, variant E35D M47I Y87Q K89E)
# T-lymphocyte activation …: VIHVTKEVKEVATLSCGHNVSVEELAQTRIYWQKDKKMVLTMMSGDINIWPEYKNRTIFDITNNLSIVILALRPSDEGTYECVVLKQEEDAFKREHLAEVTLSVKADFPTPSISDFEIPTSNIRRIICSTSGGFPEPHLSWLENGEELNAINTTVSQDPETELYAVSSKLDFNMTTNHSFMCLIKYGHLRVNQTFNWNTTKQEHFPDNLLPSWAITLISVNGIFVICCLTYCFAPRCRERRRNERLRRESVRPV
# B2: E35D/M47V/A71G (protein, UniProt P33681 35-288, looked up, variant E35D M47V A71G)
# T-lymphocyte activation …: B1 T-lymphocyte activation … with I47V, A71G, Q87Y, E89K
# B3: E35D/A71G (protein, UniProt P33681 35-288, looked up, variant E35D A71G)
# T-lymphocyte activation …: B1 T-lymphocyte activation … with I47M, A71G, Q87Y, E89K
# B4: E35D/M43I/M47V/K89N (protein, UniProt P33681 35-288, looked up, variant E35D M43I M47V K89N)
# T-lymphocyte activation …: B1 T-lymphocyte activation … with M43I, I47V, Q87Y, E89N
# B5: E35D/M47V/A71G/E88D (protein, UniProt P33681 35-288, looked up, variant E35D M47V A71G E88D)
# T-lymphocyte activation …: B1 T-lymphocyte activation … with I47V, A71G, Q87Y, E88D, E89K
# B6: A26E/E35D/M47L/A71G (protein)
# chain: VIHVTKEVKEVATLSCGHNVSVEELEQTRIYWQKDKKMVLTMMSGDLNIWPEYKNRTIFDITNNLSIVILGLRPSDEGTYECVVLKYEKDAFKREHLAEVTLSVKAD
# B7: V22D/E35D/M47L/L85Q (protein)
# chain: VIHVTKEVKEVATLSCGHNVSDEELAQTRIYWQKDKKMVLTMMSGDLNIWPEYKNRTIFDITNNLSIVILALRPSDEGTYECVVQKYEKDAFKREHLAEVTLSVKADFPTPSISDFETPTSNIRRIICSTSGGFPEPHLSWLENGEELNAINTTVSQDPETELYAVSSKLDFNMTTNHSFMCLIKYGHLRVNQTFNWNTTKQEHFPDN
# modifications: CD80 v261 ECD
# B8: T28Y/Q33H/E35D/D46V/M47I/A71G (protein)
# chain: B7 chain with D22V, T28Y, Q33H, D46V, L47I, A71G, Q85L
# modifications: CD80 v291 ECD
# B9: V22D/E35D/M47L/L70M/L97Q (protein)
# chain: B7 chain with L70M, Q85L, L97Q
# modifications: CD80 v283 ECD
# B10: E35D/T41S/M43I/M47L/A71G (protein, UniProt P33681 35-288, looked up, variant E35D T41S M43I M47L A71G)
# T-lymphocyte activation …: B1 T-lymphocyte activation … with T41S, M43I, I47L, A71G, Q87Y, E89K
# B11: E35D/M47V/N48T/L85Q (protein, UniProt P33681 35-288, looked up, variant E35D M47V N48T L85Q)
# T-lymphocyte activation …: B1 T-lymphocyte activation … with I47V, N48T, L85Q, Q87Y, E89K
# B12: Q27H/E35D/D46V/M47L/A71G (protein, UniProt P33681 35-288, looked up, variant Q27H E35D D46V M47L A71G)
# T-lymphocyte activation …: B1 T-lymphocyte activation … with Q27H, D46V, I47L, A71G, Q87Y, E89K
# B13: E35D/M38T/M43V/M47V/N48R/L85Q (protein, UniProt P33681 35-288, looked up, variant E35D M38T M43V M47V N48R L85Q)
# T-lymphocyte activation …: B1 T-lymphocyte activation … with M38T, M43V, I47V, N48R, L85Q, Q87Y, E89K
# modifications: Fc fusion
# B14: E35D/M38T/D46E/M47V/N48S (protein, UniProt P33681 35-288, looked up, variant E35D M38T D46E M47V N48S)
# T-lymphocyte activation …: B1 T-lymphocyte activation … with M38T, D46E, I47V, N48S, Q87Y, E89K
# B15: E35D/T41S/M47V/A71G/K89N (protein, UniProt P33681 35-288, looked up, variant E35D T41S M47V A71G K89N)
# T-lymphocyte activation …: B1 T-lymphocyte activation … with T41S, I47V, A71G, Q87Y, E89N
# B16: Q33R/E35D/M47V/N48K/L85M/F92L (protein, UniProt P33681 35-288, looked up, variant Q33R E35D M47V N48K L85M F92L)
# T-lymphocyte activation …: B1 T-lymphocyte activation … with Q33R, I47V, N48K, L85M, Q87Y, E89K, F92L
# modifications: Fc fusion
# B17: E35D/M47L/A71G/L85Q (protein, UniProt P33681 35-288, looked up, variant E35D M47L A71G L85Q)
# T-lymphocyte activation …: B1 T-lymphocyte activation … with I47L, A71G, L85Q, Q87Y, E89K
# B18: E35D/D46E/M47V/A71D (protein, UniProt P33681 35-288, looked up, variant E35D D46E M47V A71D)
# T-lymphocyte activation …: B1 T-lymphocyte activation … with D46E, I47V, A71D, Q87Y, E89K
# B19: E35D/L85Q/K93T/E95V/L97Q (protein, UniProt P33681 35-288, looked up, variant E35D L85Q K93T E95V L97Q)
# T-lymphocyte activation …: B1 T-lymphocyte activation … with I47M, L85Q, Q87Y, E89K, K93T, E95V, L97Q
# B20: I30V/E35D/M47V/A71G/A91V (protein, UniProt P33681 35-288, looked up, variant I30V E35D M47V A71G A91V)
# T-lymphocyte activation …: B1 T-lymphocyte activation … with I30V, I47V, A71G, Q87Y, E89K, A91V
# B21: E35D/A71D/L72V/R73H/E81K (protein, UniProt P33681 35-288, looked up, variant E35D A71D L72V R73H E81K)
# T-lymphocyte activation …: B1 T-lymphocyte activation … with I47M, A71D, L72V, R73H, E81K, Q87Y, E89K
# Target: huPD-L1 (Homo sapiens, UniProt Q9NZQ7)
# Experiment: Flow binding to CHO cells stably expressing PD-L1
# Set-up: huCTLA4 and huPD-L1, full-length mammalian surface expression constructs were generated; expressed in transfected cells; host or cells: CHO cells, lentiviral transduction, sorted to >98% purity
# Conditions: Table E4; 33.3 nM; CHO cells stably expressing PD-L1
# Method in brief: (§1)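 Fusion proteins bound to CHO cells stably expressing CTLA4 or PD-L1, or to Jurkat/IL2 reporter cells with endogenous CD28, for 45 min on ice after blocking in PBS/1% BSA. Detection with PE anti-human Fc by flow cytometry; PE MFI per cell type and binding EC50 determined.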
# Chain of huPD-L1 (Q9NZQ7 19-290): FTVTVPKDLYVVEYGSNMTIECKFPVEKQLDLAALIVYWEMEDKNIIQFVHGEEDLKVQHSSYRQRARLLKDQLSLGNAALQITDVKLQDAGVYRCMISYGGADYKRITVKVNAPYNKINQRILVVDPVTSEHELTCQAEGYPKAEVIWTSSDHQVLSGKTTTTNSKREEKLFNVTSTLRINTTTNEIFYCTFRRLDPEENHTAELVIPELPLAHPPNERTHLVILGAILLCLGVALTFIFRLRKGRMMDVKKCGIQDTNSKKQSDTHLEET
row,Molecule,PD-L1 MFI at 33.3 nM
1,B1,29803
2,B2,36216
3,B3,34149
4,B4,19250
5,B5,37146

# Target: T1, CD28 (Homo sapiens, UniProt P10747)
# Experiment: Jurkat/IL2 + K562/OKT3/PD-L1 reporter assay
# Assay type: cell-based
# Set-up: host or cells: Jurkat cells expressing an IL-2-luciferase reporter
# Conditions: Table E8; K562/OKT3/PD-L1 aAPC; 50 nM
Molecule,"Relative Luciferase Units (RLU), CD80-Fe Cone 50 nM [RLU]",Fold Increase over WT CD80-IgV-Fe
B6,1748,
B7,1142,
B8,580,2.8
B9,1542,
B1,1581,
B10,1535,
B11,897,4.4
B2,1190,
B12,978,
B13,680,3.3
B14,1315,
B15,1023,
B16,215,
B17,1256,
B18,683,
B19,315,1.5
B3,1190,
B4,1094,
B5,1216,
B20,1503,
B21,282,

# Target: T1, CD28
# Experiment: Jurkat/IL2 + CHO/OKT3 +/- PD-L1 reporter assay: PD-L1-dependent CD28 costimulation
# Assay type: cell-based
# Set-up: host or cells: Jurkat cells expressing an IL-2-luciferase reporter
# Conditions: Table E22; Jurkat/IL2 + CHO/OKT3/PD-L1; CD80 Conc 5.0 nM
# Method in brief: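 Jurkat reporter cells (100,000/well) preincubated 15 min at room temperature with test protein, then cocultured 5 h at 37 °C with CHO aAPCs bearing anti-CD3 scFv (OKT3) with or without PD-L1. Luciferase luminescence (RLU) read after lysis-substrate addition.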
row,Molecule,"Relative Luciferase Units (RLU), CD80 Conc 5.0 nM [RLU]"
1,B6,766

# Target: huCTLA4 (Homo sapiens, UniProt P16410)
# Experiment: Flow binding to CHO cells stably expressing CTLA4
# Set-up: huCTLA4 and huPD-L1, full-length mammalian surface expression constructs were generated; expressed in transfected cells; host or cells: CHO cells, lentiviral transduction, sorted to >98% purity
# Conditions: Table E4; 33.3 nM variant CD80 IgV-Fc; CHO cells stably expressing CTLA4
# Method in brief: as §1
# Chain of huCTLA4 (P16410 36-223): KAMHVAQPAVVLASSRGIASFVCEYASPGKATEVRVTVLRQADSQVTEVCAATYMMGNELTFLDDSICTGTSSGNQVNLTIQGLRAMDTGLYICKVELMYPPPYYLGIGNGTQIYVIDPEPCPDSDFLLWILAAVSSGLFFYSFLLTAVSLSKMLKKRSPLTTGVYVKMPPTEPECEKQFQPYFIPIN
row,Molecule,CTLA4 MFI at 33.3 nM
1,B10,209034
2,B16,2680
3,B3,184204
4,B4,278391
5,B20,204756

# Target: T1, CD28
# Experiment: Flow binding to Jurkat/IL2 reporter cells (CD28)
# Set-up: host or cells: Jurkat cells expressing an IL-2-luciferase reporter
# Conditions: Table E4; 33.3 nM; Jurkat cells (CD28)
# Method in brief: as §1
row,Molecule,CD28 MFI at 33.3 nM
1,B6,2161
2,B7,542
3,B1,15452
4,B2,6360
5,B17,1436
6,B5,6237

# Same assay, conditions: Table E20; Jurkats (CD28); 33.3 nM
row,Molecule,CD28 MFI at 33.3 nM
1,B6,236
